Target: T1, human c-Met/Fc fusion protein (R&D Systems) (human, UniProt P08581 25-932)
T1 construct: Bought reagent; Coated on the ELISA plate at 2 ug/mL; also called human c-Met/Fc protein; not shown: Fc part of the bought fusion protein; not described
Assay: ELISA, human c-Met/Fc coated at 2 ug/mL, hybridoma culture, anti-mouse IgG-HRP
Method: Human c-Met/Fc fusion protein was seeded in an amount of 50 μL (2 μg/mL)/well to microtiter plates and allowed to adhere to the surface of each well. The antibody that remained unbound was removed by washing.
The hybridoma cell culture obtained in Reference Example 1.1.2 was added in an amount of 50 μL to each well of the plates and incubated for 1 hour. The cells remaining unreacted were washed out with a sufficient amount of Tris-buffered saline and Tween 20 (TBST). Goat anti-mouse IgG-horseradish peroxidase (HRP) was added to the plates and incubated for 1 hour at room temperature. The plates were washed with a sufficient amount of TBST, followed by reacting the peroxidase with a substrate (OPD). Absorbance at 450 nm was measured on an ELISA reader.

T1 sequence (P08581 25-932 limits assumed): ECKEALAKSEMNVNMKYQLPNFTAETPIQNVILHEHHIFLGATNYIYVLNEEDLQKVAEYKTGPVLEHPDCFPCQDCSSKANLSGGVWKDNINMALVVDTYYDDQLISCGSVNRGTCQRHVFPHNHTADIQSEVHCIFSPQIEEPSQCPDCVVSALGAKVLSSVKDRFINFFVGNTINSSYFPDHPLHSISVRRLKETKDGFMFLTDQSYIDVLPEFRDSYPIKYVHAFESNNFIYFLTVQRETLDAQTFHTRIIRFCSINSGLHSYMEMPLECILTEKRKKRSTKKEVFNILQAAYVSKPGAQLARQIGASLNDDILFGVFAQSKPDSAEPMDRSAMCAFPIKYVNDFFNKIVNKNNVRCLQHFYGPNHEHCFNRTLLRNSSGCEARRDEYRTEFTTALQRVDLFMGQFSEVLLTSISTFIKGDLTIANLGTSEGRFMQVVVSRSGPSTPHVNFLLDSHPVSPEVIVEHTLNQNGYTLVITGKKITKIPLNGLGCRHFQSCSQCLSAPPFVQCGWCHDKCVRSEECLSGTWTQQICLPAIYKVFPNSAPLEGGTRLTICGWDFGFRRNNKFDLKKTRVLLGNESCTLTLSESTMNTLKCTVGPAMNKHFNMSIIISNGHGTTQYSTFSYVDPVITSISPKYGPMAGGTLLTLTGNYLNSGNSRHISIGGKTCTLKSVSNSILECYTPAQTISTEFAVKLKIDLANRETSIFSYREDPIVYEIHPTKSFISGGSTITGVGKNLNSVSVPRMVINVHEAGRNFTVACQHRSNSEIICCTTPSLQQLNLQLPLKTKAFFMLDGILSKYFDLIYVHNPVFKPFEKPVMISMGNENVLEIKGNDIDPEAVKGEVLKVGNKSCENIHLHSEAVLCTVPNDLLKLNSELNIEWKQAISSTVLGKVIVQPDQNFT

binding result: binds
B1: AbF46, mouse monoclonal antibody to c-Met (antibody, V domains shown)
VH: EVKLVESGGGLVQPGGSLRLSCATSGFTFTDYYMSWVRQPPGKALEWLGFIRNKANGYTTEYSASVKGRFTISRDNSQSILYLQMDTLRAEDSATYYCARDNWFAYWGQGTLVTVSA
VL: DILMTQSPSSLTVSAGEKVTMSCKSSQSLLASGNQNNYLAWHQQKPGRSPKMLIIWASTRVSGVPDRFIGSGSGTDFTLTINSVQAEDLAVYYCQQSYSAPLTFGAGTKLELK
notes: Tested as hybridoma culture supernatant in the selection ELISA; also called monoclonal antibody produced by hybridoma KCLRF-BP-00220

From patent US20140294830A1 (SAMSUNG LIFE WELFARE FOUNDATION, published 2014)
